Measurements from paper PMC5574551.

Key:
[1] = target: taxol-stabilized microtubules (porcine brain tubulin) (porcine) (UniProt P02550); assay: single molecule observation (TIRF microscopy); 1 nM GFP-labeled dynactin isoform, mutant or fragment alone on taxol-stabilized microtubules held on glass; SM buffer, 1 mM ATP, 25°C; total residence time in a window of 10 s and 10 μm of microtubule
[2] = target: taxol-stabilized microtubules (porcine brain tubulin) (porcine) (UniProt P02550); assay: single molecule observation (TIRF microscopy); as a2, 1 nM Alexa 647-labeled dynein with 2 nM 1B isoform, no BICD2
[3] = target: taxol-stabilized microtubules (porcine brain tubulin) (porcine) (UniProt P02550); assay: single molecule observation (TIRF microscopy); as a2, 1 nM Alexa 647-labeled dynein with 2 nM 1A isoform and 20 nM BICD2 (DDB 1A)
[4] = target: dynactin complex containing the DCTN1B (1B) isoform (human (cDNA from HEK293 cells) | human (endogenous in HEK293)) (UniProt Q13561); assay: pull-down; TALON Dynabeads pull-down of purified proteins; dynein and dynactin mixed in 10 mM Pipes-NaOH pH 7.0, 75 mM NaCl, 45 mM imidazole, 0.01% Tween 20, 10 min at 25°C; bound and unbound fractions on SDS-PAGE, dynein heavy chain band quantified by densitometry
[5] = target: taxol-stabilized microtubules (porcine brain tubulin) (porcine) (UniProt P02550); assay: single molecule observation (TIRF microscopy); 1 nM Alexa 647-labeled dynein alone on taxol-stabilized microtubules held on glass by anti-β tubulin antibody; SM buffer (12 mM Pipes-KOH pH 6.8, 25 mM KAce, 1 mM ATP, 2 mM DTT), 25°C; total residence time in a window of 10 s and 10 μm of microtubule
[6] = target: taxol-stabilized microtubules (porcine brain tubulin) (porcine) (UniProt P02550); assay: single molecule observation (TIRF microscopy); as a2, 1 nM Alexa 647-labeled dynein with 2 nM p135 isoform
[7] = target: taxol-stabilized microtubules (porcine brain tubulin) (porcine) (UniProt P02550); assay: single molecule observation (TIRF microscopy); as a2, 1 nM Alexa 647-labeled dynein with 2 nM 1B isoform and 20 nM BICD2 (DDB 1B)
[8] = target: taxol-stabilized microtubules (porcine brain tubulin) (porcine) (UniProt P02550); assay: single molecule observation (TIRF microscopy); as a2, 1 nM Alexa 647-labeled dynein with 20 nM BICD2 (full length), no dynactin
[9] = target: taxol-stabilized microtubules (porcine brain tubulin) (porcine) (UniProt P02550); assay: single molecule observation (TIRF microscopy); as a2, 1 nM Alexa 647-labeled dynein with 2 nM 1A isoform, no BICD2
[10] = target: taxol-stabilized microtubules (porcine brain tubulin) (porcine) (UniProt P02550); assay: single molecule observation (TIRF microscopy); as a2, 1 nM Alexa 647-labeled dynein with 2 nM 1BΔCC1 mutant

dynactin complex containing the DCTN1A (1A) isoform (from UniProt Q14203-1 1-1278; Q13561 1-401; P61163 1-376)
fraction not dissociated from microtubules during the observation of 30 s [1]: 72% | total residence time on microtubules [1]: 60.1 s

dynactin complex containing the 1BΔCC1 mutant of DCTN1 (from UniProt P61163 1-376)
total residence time on microtubules [1]: 50 s

cytoplasmic dynein (recombinant dynein complex), Q14204 1-4646
duration on microtubules, τ (with 1B isoform) [2]: 1.2 s | total residence time on microtubules (with 1B isoform) [2]: 4.7 s | total residence time on microtubules (with 1A isoform and BICD2) [3]: 49.1 s | Kd [4]: 2.3 nM | stoichiometry N [4]: 1 | total residence time on microtubules [5]: 64.9 s | total residence time on microtubules (with p135 isoform) [6]: 23.8 s | total residence time on microtubules (with 1B isoform and BICD2) [7]: 19.2 s | total residence time on microtubules (with BICD2) [8]: 51.8 s | fraction not dissociated from microtubules during the observation of 30 s (with 1A isoform) [9]: 79% | total residence time on microtubules (with 1A isoform) [9]: 53.2 s | total residence time on microtubules (with 1BΔCC1 mutant) [10]: 54 s
